First the molecules themselves.
B1: Thioredoxin (Synechocystis sp. (strain PCC 6803 / Kazusa)), P52231 (parent)
chain: MSATPQVSDASFKEDVLDSELPVLVDFWAPWCGPCRMVAPVVDEISQQYEGKVKVVKLNTDENPNTASQYGIRSIPTLMIFKGGQRVDMVVGAVPKTTLASTLEKYL
partner: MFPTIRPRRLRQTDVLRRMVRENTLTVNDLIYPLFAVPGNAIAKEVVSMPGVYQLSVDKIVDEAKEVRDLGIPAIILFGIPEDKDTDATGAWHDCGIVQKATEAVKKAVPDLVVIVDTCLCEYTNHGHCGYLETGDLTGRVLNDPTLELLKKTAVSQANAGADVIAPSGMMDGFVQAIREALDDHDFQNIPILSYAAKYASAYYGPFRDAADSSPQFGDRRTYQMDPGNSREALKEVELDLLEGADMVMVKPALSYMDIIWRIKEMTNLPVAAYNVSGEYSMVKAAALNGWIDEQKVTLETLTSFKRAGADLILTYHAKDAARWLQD
B2: Thioredoxin (Synechocystis sp. (strain PCC 6803 / Kazusa)), P52231 (parent)
chain: B1 chain
partner: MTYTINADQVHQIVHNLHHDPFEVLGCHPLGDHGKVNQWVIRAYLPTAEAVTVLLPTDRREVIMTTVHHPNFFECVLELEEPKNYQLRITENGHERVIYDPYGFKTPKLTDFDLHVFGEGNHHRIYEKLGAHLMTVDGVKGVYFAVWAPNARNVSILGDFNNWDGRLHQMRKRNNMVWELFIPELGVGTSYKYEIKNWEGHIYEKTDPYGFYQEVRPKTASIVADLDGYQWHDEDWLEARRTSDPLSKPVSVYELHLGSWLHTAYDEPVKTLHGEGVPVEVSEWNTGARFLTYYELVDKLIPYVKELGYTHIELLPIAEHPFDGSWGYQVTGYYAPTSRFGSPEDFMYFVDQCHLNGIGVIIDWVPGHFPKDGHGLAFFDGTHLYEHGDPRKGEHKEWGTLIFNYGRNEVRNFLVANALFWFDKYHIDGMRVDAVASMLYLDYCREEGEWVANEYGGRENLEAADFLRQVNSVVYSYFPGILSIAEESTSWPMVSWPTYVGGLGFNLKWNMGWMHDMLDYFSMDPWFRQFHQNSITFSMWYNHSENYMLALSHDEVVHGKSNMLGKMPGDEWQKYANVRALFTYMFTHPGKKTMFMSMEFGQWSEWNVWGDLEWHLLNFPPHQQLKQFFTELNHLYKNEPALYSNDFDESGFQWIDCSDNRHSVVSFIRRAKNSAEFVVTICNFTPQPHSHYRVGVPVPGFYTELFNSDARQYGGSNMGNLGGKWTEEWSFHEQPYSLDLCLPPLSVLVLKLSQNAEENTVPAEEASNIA
B3: Thioredoxin (Synechocystis sp. (strain PCC 6803 / Kazusa)), P52231 (parent)
chain: B1 chain
partner: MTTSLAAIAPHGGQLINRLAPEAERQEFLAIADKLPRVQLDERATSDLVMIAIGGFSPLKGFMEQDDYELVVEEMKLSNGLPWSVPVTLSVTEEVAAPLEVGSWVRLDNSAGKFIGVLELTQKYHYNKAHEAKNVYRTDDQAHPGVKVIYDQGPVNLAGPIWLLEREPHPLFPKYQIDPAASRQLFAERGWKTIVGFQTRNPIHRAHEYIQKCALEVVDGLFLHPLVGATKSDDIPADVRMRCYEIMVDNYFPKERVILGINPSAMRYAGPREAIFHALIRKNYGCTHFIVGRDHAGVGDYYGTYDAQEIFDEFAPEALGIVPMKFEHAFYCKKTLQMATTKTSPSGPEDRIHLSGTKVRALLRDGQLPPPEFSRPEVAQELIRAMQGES
B4: Thioredoxin (Synechocystis sp. (strain PCC 6803 / Kazusa)), P52231 (parent)
chain: B1 chain
partner: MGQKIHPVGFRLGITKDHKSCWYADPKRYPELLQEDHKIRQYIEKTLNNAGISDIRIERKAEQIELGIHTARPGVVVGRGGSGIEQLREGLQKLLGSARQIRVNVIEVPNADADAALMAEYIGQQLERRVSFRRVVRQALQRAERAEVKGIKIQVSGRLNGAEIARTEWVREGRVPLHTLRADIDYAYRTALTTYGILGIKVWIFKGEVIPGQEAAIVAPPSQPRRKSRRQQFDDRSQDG
B5: Thioredoxin (Synechocystis sp. (strain PCC 6803 / Kazusa)), P52231 (parent)
chain: B1 chain
B6: Thioredoxin (Synechocystis sp. (strain PCC 6803 / Kazusa)), P52231 (parent)
chain: B1 chain
partner: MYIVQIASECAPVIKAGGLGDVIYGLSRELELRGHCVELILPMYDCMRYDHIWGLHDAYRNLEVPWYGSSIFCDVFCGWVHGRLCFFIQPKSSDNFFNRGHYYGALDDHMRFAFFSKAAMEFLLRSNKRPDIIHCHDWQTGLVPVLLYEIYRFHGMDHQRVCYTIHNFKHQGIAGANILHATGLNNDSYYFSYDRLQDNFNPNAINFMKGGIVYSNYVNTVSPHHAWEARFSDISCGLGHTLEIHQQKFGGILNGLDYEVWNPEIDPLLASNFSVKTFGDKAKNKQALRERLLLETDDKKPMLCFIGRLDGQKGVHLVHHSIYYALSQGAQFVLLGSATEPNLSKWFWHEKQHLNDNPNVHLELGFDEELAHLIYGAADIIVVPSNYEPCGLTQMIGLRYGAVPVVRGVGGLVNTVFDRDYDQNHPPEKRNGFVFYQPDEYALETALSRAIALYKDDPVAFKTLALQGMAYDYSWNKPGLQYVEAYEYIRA

The variants in the first experiment derive from B1. To be noted: with hem2_syny3 hemB.
Take C35S: the “effect of a mutation on the interaction” value is “increasing interaction”.

In a further experiment the parent is B2. The conditions noted are these: with glgb_syny3 glgB.
Take C35S: the “effect of a mutation on the interaction” value is listed as “increasing interaction”.

The variants in the next experiment derive from B3. To be noted: with sat_syny3 sat.
As to C35S, the “effect of a mutation on the interaction” value is “increasing interaction”.

Variants of B4 are the subject of the next experiment. The conditions noted are these: with rs3_syny3 rpsC.
C35S: the “effect of a mutation on the interaction” value is “increasing interaction”.

In another experiment the parent is B5. To be noted: with glts_syny3 gltS.
Consider C35S, for which the “effect of a mutation on the interaction” value is on record as “increasing interaction”.

The variants in the next experiment derive from B5. The conditions noted are these: with rbl_syny3 cbbL.
Regarding C35S, the “effect of a mutation on the interaction” value is “increasing interaction”.

Variants of B5 are the subject of the next experiment. To be noted: with eftu_syny3 tuf.
Consider C35S, for which the “effect of a mutation on the interaction” value is listed as “increasing interaction”.

The variants in the next experiment derive from B5. To be noted: with gltb_syny3 gltB.
In the case of C35S, the “effect of a mutation on the interaction” value is on record as “increasing interaction”.

The variants in another experiment derive from B5. To be noted: with apce_syny3 apcE.
With C35S, the “effect of a mutation on the interaction” value is “increasing interaction”.

Another experiment covers variants of B6. To be noted: with glga2_syny3 glgA2, P72623.
With C35S, the “effect of a mutation on the interaction” value was “increasing interaction”.

Values taken from IntAct's records for PubMed 14673118.
